US8323971B2, “Differentiation of pluripotent cells into primary germ layer progenitors” (Cambridge Enterprise Limited, priority 2006, dated 2012)

Columns and labels:
Assay type in all cases: cell-based, human
hESC derived EBs [1] = test: Quantitation of rosette structures in EBs; details: expressing EBs grown in CDM
Description: (§1) Lefty or Cerb-S expressing hESCs (as well as wildtype H9 and hSF-6 hESCs) were grown in 6 cm dishes (Corning), on mouse feeders. When confluent, hESCs were passaged using collagenase 1 mg/ml, as previously described (Schatten et al., 2005) and cultured in non-adherent conditions in CDM supplemented with either SU5402 (Calbiochem; 10 μM), SB431542 (Tocris; 20 μM), FGF-2 (R&D Systems; 12 ng/ml) or Noggin 200 ng/ml.
To investigate the development of EBs derived from Lefty or Cerb-S overexpressing hESCs, we grew the cells as EBs in suspension culture using CDM medium. As previously observed (Vallier et al., 2004a), wildtype control EBs grown in CDM developed almost exclusively as simple spheres with no apparent tissue organisation. […] Hematoxylin/Eosin staining of sectioned EBs confirmed that these folded structures found in Lefty overexpressing EBs were neuroectoderm-like, with internal epithelial rosettes. Lefty and Cerb-S expressing EBs contained respectively 5 times (Pb 0.05) and 2 times (not significant, N.S.) more epithelial rosettes than control EBs (FIG. 5).

hESC derived EBs [2] = test: Incidence of beating structures in EBs plated in MEF media; details: over-expressing EBs in MEF medium containing FBS
Description: Lefty, Cerb-S expressing and wildtype EBs were plated in MEF media, and beating EBs were counted. Lefty expressing EBs generated fewer beating structures as compared to wildtype EBs (NS=not significant) (Scale bar=[…]).
In some experiments, hESCs were incubated in DMEM supplemented with 10% FCS and 1 mM glutamine (MEF media) to promote mesoderm formation. EBs were then grown for 12-16 days at 37° C. at […] before being harvested for histological or molecular marker analysis.
To evaluate further the differentiation potential of Lefty and Cerb-S overexpressing hESCs, EBs were cultured in MEF medium containing fetal bovine serum (FBS), which promotes the formation of mesoderm lineages including cardiomyocytes, as recognised by rhythmically beating structures. […] Nodal expressing EBs grown in these conditions were not seen to generate such beating structures, and instead maintained expression of the pluripotency marker Oct-4 (FIG. 7).

hESCs = test: Quantitation of β-tubulin III positive cells in monolayer differentiation; details: expressing hESCs differentiated in CDM, monolayer, 24 days
Description: In some experiments, Wildtype and Lefty expressing hESCs were grown on fibronectin in FGF (12 ng/ml)/Activin (20 ng/ml) as a monolayer in the absence of a feeder layer (Vallier et al., 2005). When cells were 70-80% confluent medium was changed to either CDM only, CDM/FGF (12 ng/ml), CDM/Noggin 200 ng/ml, CDM/SU5402 and differentiated for 24 days.
To quantify the neurogenic potential of Lefty expressing hESCs, we cultured Lefty expressing hESCs in feeder-free conditions as a monolayer in CDM supplemented with Activin and FGF as described previously (Vallier et al., 2005). When cells reached 70-80% confluency, medium was changed to CDM only, CDM plus FGF (12 ng/ml) (CDM/FGF), CDM plus the BMP inhibitor Noggin (200 ng/ml) ([…]) (CDM/SU5402), and cells were cultured in these conditions for 24 days
The incidence of neural differentiation was determined by counting the number of β-tubulin III positive cells in random fields.

hESC derived EBs [3] = test: Real time qPCR / RT-PCR of neuroectoderm and pluripotency markers in EBs; details: expressing EBs compared to wildtype
Description: Four independent batches of WT and Lefty EBs were used for this analysis.
Five independent batches of DMSO- and SB431542-treated EBs were used for this analysis.
as §1
For some RT-PCR experiments, 50-100 ng of RNA were used for each RT-PCR reaction, using the OneStep RT-PCR kit according to manufacturer instructions. For real-time PCR, 1 μg RNA was reverse-transcribed using the Qiagen QuantiTect Reverse Transcription kit. 1/20-1/40 of each cDNA reaction was used for each real-time PCR reaction using the QuantiTect SYBR Green PCR Kit (Qiagen) according to manufacturer instructions. Relative quantification of gene expression was done by normalising the detected levels of gene of interest mRNA to those of the house-keeping GAPDH gene. All primers were purchased from Qiagen, with the exception of Xenopus Cerb-S: Forward 5′-[…]-3′ (SEQ ID NO: 1); Reverse 5′-ATGGTGCAGGGTAG TAGATG-3′ (SEQ ID NO: 2). Mouse Lefty2: Forward 5^r-[…]-3′ (SEQ ID NO: 3); Reverse 5′-[…]-3′ (SEQ ID NO: 4).

B1: Lefty: mouse Lefty2, Nodal inhibitor stably over-expressed in hESCs (protein, UniProt P57785 78-368, looked up)
Left-right determination …: FSQNFREVAGRFLMSETSTHLLVFGMEQRLPPNSELVQAVLRLFQEPVPRTALRRFERLSPHSARARVTIEWLRVREDGSNRTALIDSRLVSIHESGWKAFDVTEAVNFWQQLSRPRQPLLLQVSVQREHLGPGTWSAHKLVRFAAQGTPDGKGQGEPQLELHTLDLKDYGAQGNCDPEVPVTEGTRCCRQEMYLDLQGMKWAENWILEPPGFLTYECVGSCLQLPESLTIGWPFLGPRQCVASEMTSLPMIVSVKEGGRTRPQVVSLPNMRVQTCSCASDGALIPRGIDL
In the case of B1, the “epithelial rosettes relative to control EBs” value (hESC derived EBs [1]) is reported as 5 times, the “decrease of incidence of rhythmically contracting structures compared to wildtype EBs” value (hESC derived EBs [2]) is reported as about 79% and the “β-tubulin III positive cells/field” value (hESCs) is reported as 69±13 cells/field. The “Nestin, Sox3 and Sox1 expression (real-time qPCR)” value (hESC derived EBs [3]) was “increased average levels”.
